Measured values published in paper PMC9544338.

What was measured:
Assay in all cases: co-IP; N2a cells cotransfected with His6-RGS19 and Gαo-GFP (C-terminally tagged) variants, treated with 1 μM ZPT for 3 hours before IP of Gαo with a nanobody against GFP; Western blot; fold against DMSO-treated cells
[1] = biological target: Gαo[E246K]-GFP (C-terminally tagged) (human), P09471; settings: remark: other sources report otherwise
[2] = biological target: Gαo[G203R]-GFP (C-terminally tagged) (human), P09471
[3] = biological target: Gαo[R209C]-GFP (C-terminally tagged) (human), P09471; settings: remark: other sources report otherwise

B1: His6-RGS19, P49795 1-217 (other documents disagree on this pair)
chain: MPTPHEAEKQITGPEEADRPPSMSSHDTASPAAPSRNPCCLCWCCCCSCSWNQERRRAWQASRESKLQPLPSCEVCATPSPEEVQSWAQSFDKLMHSPAGRSVFRAFLRTEYSEENMLFWLACEELKAEANQHVVDEKARLIYEDYVSILSPKEVSLDSRVREGINKKMQEPSAHTFDDAQLQIYTLMHRDSYPRFLSSPTYRALLLQGPSQSSSEA
- fold increase of the interaction by ZPT over DMSO [1]: 12 fold
- fold increase of the interaction by ZPT over DMSO [2]: 20 fold
- fold increase of the interaction by ZPT over DMSO [3]: 6 fold
